{"source": "patent US20140079722A1", "about": "“EXTRACELLULAR TARGETED DRUG CONJUGATES” (CENTROSE, LLC, priority 2011, published 2014)", "molecules": {"B1": {"name": "M53-PEG24-CEN10-110 (antibody, V domains shown)", "VH": "EVQLVESGGGLVQPKGTLKLSCAASGFSFNTHAMNWVRQAPGKSLEWVARTMSKSNNYATYYADSVKDRFIIRADDSQSMLYLQMNNLKTEDTAMYYCVRDDPKRGMDYWGQGTSVTVSS", "VL": "GIVMSQSPSSLAVSVGEKVTMSCKPSQSLLYSRNQKIYLAWYQQKPGQSPKLLIYWASTRESGVPDRFTGSGSGTDFTLIISSVRAEDLAVYYCQQYYNYPLTFGAGTKLELKR", "modifications": "PEG24-CEN10-110 on reduced cysteine thiols; positions not given; PEG24-CEN10-110 (scillarenin linker-drug with lysine in the linker) on reduced cysteine thiols; positions not given"}, "B2": {"name": "M53-PEG24-CEN-319 (antibody, V domains shown)", "VH": "B1 VH", "VL": "B1 VL", "modifications": "PEG24-CEN-319 on reduced cysteine thiols; positions not given; PEG24-CEN-319 (digitoxigenin 4-amino-xyloside PEG24 maleimide linker-drug) on reduced cysteine thiols; positions not given"}, "B3": {"name": "M53-PEG24-CEN09-107 (antibody, V domains shown)", "VH": "B1 VH", "VL": "B1 VL", "modifications": "PEG24-CEN09-107 on reduced cysteine thiols; positions not given; PEG24-CEN09-107 (scillarenin 4-amino-riboside PEG24 maleimide linker-drug) on reduced cysteine thiols; positions not given"}, "B4": {"name": "cM53-PEG24-CEN09-106 (antibody, human IgG1, kappa, V domains shown)", "VH": "B1 VH with V2C, R73S, A74R", "VL": "B1 VL", "modifications": "PEG24-CEN09-106 on cysteine thiols; positions not stated (cysteine in place of valine at position 2 of SEQ ID NO: 23)"}, "B5": {"name": "scFv-PEG24-CEN09-106 (scFv)", "scFv": "ECQLVESGGGLVQPKGTLKLSCAASGFSFNTHAMNWVRQAPGKSLEWVARTMSKSNNYATYYADSVKDRFIISRDDSQSMLYLQMNNLKTEDTAMYYCVRDDPKRGMDYWGQGTSVTVSSGGGGSGGGGSGGGGSGIVMSQSPSSLAVSVGEKVTMSCKPSQSLLYSRNQKIYLAWYQQKPGQSPKLLIYWASTRESGVPDRFTGSGSGTDFTLIISSVRAEDLAVYYCQQYYNYPLTFGAGTKLELK", "modifications": "PEG24-CEN09-106 (scillarenin linker-drug) on the unpaired cysteine (position 23 of SEQ ID NO: 30)"}, "B6": {"name": "scFv-PEG36-CEN09-016: scFv conjugate with PEG36 linker, 1 drug per scFv (conjugate)", "scFv": "B5 scFv"}, "B7": {"name": "scFv-PEG12-CEN09-016: scFv conjugate with PEG12 linker, 1 drug per scFv (conjugate)", "scFv": "B5 scFv"}}, "key": {"[1]": {"test_system": "NSCLC cell line A549", "experiment": "In vitro cytotoxicity of M53-PEG24-CEN09-106 drug combinations", "type": "cell-based", "conditions": "Homo sapiens", "description": "The studies employed a fixed ratio of the drugs (based on the EC50 values of each alone) across a concentration gradient. Single drug ED50 values were first determined and from those values combination analysis were prepared by 3-fold serial dilutions in 8 steps for all compounds. Combinations were tested using fixed concentration ratios. […] All compound concentrations and combinations were tested in duplicate. Cell culture and cell viability assays were performed as described."}, "[2]": {"test_system": "PANC-1 xenograft", "experiment": "PANC-1 xenograft model, alone and with gemcitabine", "type": "in vivo, C.B-17/IcrHsd-Prkdc scid Lyst bg mice", "conditions": "gemcitabine alone 60 mg/kg i.p. q3dx5", "description": "A disease model of pancreatic cancer was established by implanting 5×10^6 PANC-1 cells in 100 μL DMEM into the left flank of 7 week old female C.B-17/IcrHsd-Prkdc^scidLyst^bg mice. Mice were then treated with M53-PEG24-CEN09-106 with a drug loading of 8 and/or gemcitabine when the tumor size in groups of 3 animals averaged ˜500 mm^3. Treatments consisted of either vehicle control, M53-PEG24-CEN09-106 at 0.2, 1 and 5 mg/kg, with and without 60 mg/kg gemcitabine or 60 mg/kg gemcitabine alone and consisted of multiple injections using the M53-PEG24-CEN09-106 schedule of one injection every 7 days for 3 injections (q7d×3) administered i.v. and the gemcitabine schedule of one injection every 3 days for 5 injections (q3d×5) administered i.p. Tumor volumes were measured for each group using calibrated vernier calipers and plotted against first day of tumor implant for 28 days post-initial dose, graphed and shown in FIG. 6."}, "[3]": {"test_system": "A549 xenograft", "experiment": "A549 xenograft model (cell implant)", "type": "in vivo, Hsd:Athymic Nude-Foxn1nu mice", "conditions": "controls: paclitaxel 15 mg/kg q2dx5; control conjugate (loading 7) 10 mg/kg i.v. q7dx3; A549 xenograft", "description": "Briefly, to establish a non-small-cell lung cancer disease model, 6×10^6 A549 cells in 200 μL, RPMI1640+50% Matrigel HC (BD Biosciences, San Jose, Calif.) were implanted into the left flank of Hsd:Athymic Nude-Foxn1^nu mice (Harlan, Indianapolis, Ind.). Therapy with antibody-drug conjugates was then initiated when the tumor volume in groups of 5 animals averaged ˜300 mm^3. Treatment using vehicle control, 0.1 and 1 mg/kg M53-PEG24-CEN09-106, and 10 mg/kg control M53-PEG24-CEN09-106 (a control conjugate with a drug loading of 7 drugs per antibody where the antibody's target is not on the cell surface but drug and linker and antibody isotype are the same as M53-PEG24-CEN09-106) were all administered i.v. using the schedule of one injection every 7 days with 3 total injected doses (q7d×3). 15 mg/kg paclitaxel dosed at q2d×5 served as a positive control treatment group. Using this schedule, tumor volumes were measured for each group using calibrated vernier calipers and plotted against first day of tumor implant for 54 days post-implant and 40 days post-initial dose, to produce the graph shown in FIG. 3."}, "[4]": {"test_system": "A549 xenografts", "experiment": "Second A549 xenograft study (tumor fragments)", "type": "in vivo, female HRLN nu/nu mice", "conditions": "for growth inhibition of the tumor compared to vehicle: 100 days post-initial dose, EDC (loading 3) 5 mg/kg i.p. q3dx4, scillarenin aminoxyloside 20 mg/kg q2dx5, paclitaxel 15 mg/kg q1dx5; for weight loss: same dosing as efficacy arms, second A549 xenograft study", "description": "Briefly, to establish a non-small-cell lung cancer disease model, subcutaneous A549 xenografts were initiated in female HRLN nu/nu mice by implanting 8 mm^3 A549 tumor fragments subcutaneously into the left flank. Tumor growth was monitored, and mice bearing tumors of 60-180 mm^3 were selected for the study. Tumor-bearing mice (n=7 mice/group) with a group average tumor volume of approximately 110 mm^3 were treated i.p. with 5 mgs/kg M53-PEG24-CEN09-106 at q3d×4, 20 mg/kg scillarenin-4-amino-deoxy-L-xylopryanoside (an intermediate in the construction of M53-PEG24-CEN09-106 and known cytotoxin) at q2dx5, and 15 mg/kg paclitaxel at q1d×5. Tumor volumes were measured for each group using calibrated vernier calipers plotted against day of first dose for 100 days to produce the graph shown in FIG. 4.\nPaclitaxel at its optimum dosing produced 80% growth inhibition of the tumor when compared to vehicle."}, "[5]": {"test_system": "H460 xenograft", "experiment": "H460 xenograft model", "type": "in vivo, Hsd:Athymic Nude-Foxn1nu mice", "conditions": "H460 xenograft", "description": "Briefly, to establish a large-cell lung cancer disease model, 1×10^6 H-460 cells in 100 μL RPMI1640+30% Matrigel HC (BD Biosciences, San Jose, Calif.) were implanted into the left flank of Hsd:Athymic Nude-Foxn1^nu mice (Harlan, Indianapolis, Ind.). Therapy was initiated when the tumor size in groups of 5 animals averaged ˜200 mm^3. Treatment using vehicle control, M53-PEG24-CEN09-106 at 0.1 and 1 mg/kg, and 10 mg/kg control M53-PEG24-CEN09-106 (as described above) consisted of multiple i.v. injections using the schedule of one injection every 7 days for 2 injections (q7d×2). Paclitaxel served as a positive control treatment group and was dosed i.v. at 15 mg/kg using the schedule of one injection every 2 days for 5 injections (q2d×5). Using this schedule, tumor volumes were measured for each group using calibrated vernier calipers and plotted against day of tumor implant for 24 days post-implant and 12 days post-initial dose, graphed and shown in FIG. 5."}, "[6]": {"target": "T1, human dysadherin (human, UniProt Q96DB9 22-178)", "T1 chain": "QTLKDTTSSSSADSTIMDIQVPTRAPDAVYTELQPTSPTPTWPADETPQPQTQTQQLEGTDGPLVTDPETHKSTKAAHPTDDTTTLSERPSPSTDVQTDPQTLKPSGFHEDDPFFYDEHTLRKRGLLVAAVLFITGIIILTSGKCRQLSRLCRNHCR", "experiment": "cell-based or functional assay"}, "[7]": {"target": "T1, human dysadherin", "experiment": "cell-based or functional assay"}, "[8]": {"test_system": "NSCLC cell line A549", "experiment": "In vitro activity of chimeric and scFv conjugates against A549", "conditions": "A549 cells; scFv conjugates", "description": "Cells were incubated with the agent/conjugate for 3 days before cell viability testing. Cell viability testing used the CellTiter-Glo luminescent cell viability assay (Promega, Madison, Wis.)."}}, "note": "Changes are numbered by the printed parent chain.", "data": [{"molecule": "CO[C@H]1C[C@@H]2CC[C@@H](C)[C@@](O)(O2)C(=O)C(=O)N2CCCC[C@H]2C(=O)O[C@H]([C@H](C)C[C@@H]2CC[C@@H](OCCO)[C@H](OC)C2)CC(=O)[C@H](C)/C=C(\\C)[C@@H](O)[C@@H](OC)C(=O)[C@H](C)C[C@H](C)/C=C/C=C/C=C/1C", "note": "[Everolimus]", "values": [{"measurement": "EC50", "setting": "[1]; drug alone, A549 cells, read-out: EC50", "value": 11, "unit": "nM"}]}, {"molecule": "Nc1ccn([C@@H]2O[C@H](CO)[C@@H](O)C2(F)F)c(=O)n1", "note": "[Gemcitabine, reference compound]", "values": [{"measurement": "growth inhibition of the tumor compared to vehicle", "setting": "[2]", "value": 68, "unit": "%"}]}, {"molecule": "CCN(CC)CCCCNc1ncc2cc(-c3cc(OC)cc(OC)c3)c(NC(=O)NC(C)(C)C)nc2n1", "note": "[PD 0173074]", "values": [{"measurement": "EC50", "setting": "[1]; A549", "value": 29000, "unit": "nM"}]}, {"molecule": "CC(=O)O[C@H]1C(=O)[C@@]2(C)[C@H]([C@H](OC(=O)c3ccccc3)[C@]3(O)C[C@H](OC(=O)[C@H](O)[C@@H](NC(=O)c4ccccc4)c4ccccc4)C(C)=C1C3(C)C)[C@]1(OC(C)=O)CO[C@@H]1C[C@@H]2O", "note": "[Paclitaxel, reference compound]", "values": [{"measurement": "growth inhibition of the tumor compared to vehicle", "setting": "[3]", "value": 45, "unit": "%"}, {"measurement": "growth inhibition of the tumor compared to vehicle", "setting": "[4]", "value": 80, "unit": "%"}, {"measurement": "weight loss", "setting": "[4]", "value": 11, "unit": "%"}, {"measurement": "weight loss", "setting": "[5]; EDC 0.1 mg/kg q7dx2, paclitaxel 15 mg/kg q2dx5", "value": 15, "unit": "%"}, {"measurement": "growth inhibition of the tumor compared to vehicle", "setting": "[5]; controls: paclitaxel 15 mg/kg i.v. q2dx5, control conjugate 10 mg/kg i.v. q7dx2", "value": 78, "unit": "%"}]}, {"molecule": "C[C@]12CC[C@H](OC3OC[C@H](N)[C@@H](O)[C@@H]3O)C=C1CCC1C2CC[C@]2(C)[C@@H](c3ccc(=O)oc3)CC[C@]12O", "note": "(stereo partly drawn) [Scillarenin-4-amino-4-deoxy-L-xylopyranoside]", "values": [{"measurement": "growth inhibition of the tumor compared to vehicle", "setting": "[4]", "value": 60, "unit": "%"}, {"measurement": "weight loss", "setting": "[4]", "value": 8, "unit": "%"}]}, {"molecule": "B1", "values": [{"measurement": "EC50, cytotoxicity (CellTiter-Glo cell viability), A375 cells", "setting": "[6]", "value": 0.5, "unit": "nM"}, {"measurement": "EC50, cytotoxicity (CellTiter-Glo cell viability), A549 cells", "setting": "[6]", "value": 0.1, "unit": "nM"}, {"measurement": "EC50, cytotoxicity (CellTiter-Glo cell viability), H460 cells", "setting": "[6]", "value": 0.2, "unit": "nM"}]}, {"molecule": "B2", "values": [{"measurement": "EC50, cytotoxicity (CellTiter-Glo cell viability), A549 cells", "setting": "[6]", "value": 1.6, "unit": "nM"}, {"measurement": "EC50, cytotoxicity (CellTiter-Glo cell viability), H929 cells", "setting": "[6]", "value": "> 200", "unit": "nM"}, {"measurement": "EC50, cytotoxicity (CellTiter-Glo cell viability), PANC cells", "setting": "[6]", "value": "> 200", "unit": "nM"}]}, {"molecule": "B3", "values": [{"measurement": "EC50, cytotoxicity (CellTiter-Glo cell viability), A375 cells", "setting": "[6]", "value": 2.6, "unit": "nM"}, {"measurement": "EC50, cytotoxicity (CellTiter-Glo cell viability), A549 cells", "setting": "[6]", "value": 0.5, "unit": "nM"}]}, {"molecule": "B4", "values": [{"measurement": "EC50, in vitro activity against A549 cells", "setting": "[7]", "value": 2, "unit": "nM"}]}, {"molecule": "B5", "values": [{"measurement": "EC50, in vitro activity against A549 cells", "setting": "[7]", "value": 1.6, "unit": "nM"}]}, {"molecule": "B6", "values": [{"measurement": "EC50", "setting": "[8]", "value": 1.1, "unit": "nM"}]}, {"molecule": "B7", "values": [{"measurement": "EC50", "setting": "[8]", "value": 9.1, "unit": "nM"}]}]}
